Measured values as given in publication PMC11582070, “Template-assisted covalent modification underlies activity of covalent molecular glues” (Nature Chemical Biology, 2023).

Target: recombinant BRD4BD2 (residues 368-440) (human) (UniProt O60885)

Sequence of GAK_(14–351)-HA (O14976 14-351): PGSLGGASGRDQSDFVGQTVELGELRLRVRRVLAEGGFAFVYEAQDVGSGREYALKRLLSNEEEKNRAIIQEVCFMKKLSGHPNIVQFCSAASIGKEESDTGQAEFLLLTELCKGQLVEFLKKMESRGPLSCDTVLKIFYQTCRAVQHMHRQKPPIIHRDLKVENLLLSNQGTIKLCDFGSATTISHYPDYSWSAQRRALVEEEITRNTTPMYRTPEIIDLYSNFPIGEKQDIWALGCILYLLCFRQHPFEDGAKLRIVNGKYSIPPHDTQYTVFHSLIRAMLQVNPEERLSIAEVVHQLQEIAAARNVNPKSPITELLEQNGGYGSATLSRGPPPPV

With “GAK_(14–351)-HA (from UniProt O14976 14-351) (domain or fragment)” the intact protein mass spectrometry: MMH2 adduct on recombinant GAK 14-351 with BRD4BD2 present, 4 °C 16 h (approximately 2% without BRD4BD2) was 22% and the intact protein mass spectrometry: TMX1 adduct on recombinant GAK 14-351 with BRD4BD2 present, 4 °C 16 h (none detectable without BRD4BD2) was 5%.
